Laboratory results taken from patent US20040166544A1.
Each block holds one substance with its values, some of them ahead of it.

Key:
[1] = molecular target: c-Met/Fc Chimera (R&D Systems, catalog # 358-MT-100) (human) (UniProt P08581); test: competition ELISA: displacement of biotinylated HGF from plate-coated c-Met/Fc chimera, IgG, n = 2
[2] = molecular target: c-Met (endogenous, on human cell lines 184B5, HCT-116, DU-145 and NCI H441) (human) (UniProt P08581); test: cell-based or functional assay
[3] = molecular target: biotinylated c-Met-Fc (R&D Systems, #358-MT-100/CF, 5.1 biotin per c-Met molecule) (human) (UniProt P08581); test: SPR (BIAcore), biotinylated c-Met-Fc captured on streptavidin chip, IgG as analyte, bivalent model
[4] = molecular target: c-Met/Fc Chimera (R&D Systems, catalog # 358-MT-100) (human) (UniProt P08581); test: competition ELISA: displacement of biotinylated HGF from plate-coated c-Met/Fc chimera, Fab, n = 2
[5] = molecular target: c-Met/Fc Chimera (R&D Systems, catalog # 358-MT-100) (human) (UniProt P08581); test: SPR (BIAcore), c-Met-Fc captured on protein A CM5 chip, Fab as analyte, 1:1 Langmuir model

Chain of c-Met/Fc Chimera (R&D Systems, catalog # 358-MT-100) (human) (P08581 25-932, stated change not applied): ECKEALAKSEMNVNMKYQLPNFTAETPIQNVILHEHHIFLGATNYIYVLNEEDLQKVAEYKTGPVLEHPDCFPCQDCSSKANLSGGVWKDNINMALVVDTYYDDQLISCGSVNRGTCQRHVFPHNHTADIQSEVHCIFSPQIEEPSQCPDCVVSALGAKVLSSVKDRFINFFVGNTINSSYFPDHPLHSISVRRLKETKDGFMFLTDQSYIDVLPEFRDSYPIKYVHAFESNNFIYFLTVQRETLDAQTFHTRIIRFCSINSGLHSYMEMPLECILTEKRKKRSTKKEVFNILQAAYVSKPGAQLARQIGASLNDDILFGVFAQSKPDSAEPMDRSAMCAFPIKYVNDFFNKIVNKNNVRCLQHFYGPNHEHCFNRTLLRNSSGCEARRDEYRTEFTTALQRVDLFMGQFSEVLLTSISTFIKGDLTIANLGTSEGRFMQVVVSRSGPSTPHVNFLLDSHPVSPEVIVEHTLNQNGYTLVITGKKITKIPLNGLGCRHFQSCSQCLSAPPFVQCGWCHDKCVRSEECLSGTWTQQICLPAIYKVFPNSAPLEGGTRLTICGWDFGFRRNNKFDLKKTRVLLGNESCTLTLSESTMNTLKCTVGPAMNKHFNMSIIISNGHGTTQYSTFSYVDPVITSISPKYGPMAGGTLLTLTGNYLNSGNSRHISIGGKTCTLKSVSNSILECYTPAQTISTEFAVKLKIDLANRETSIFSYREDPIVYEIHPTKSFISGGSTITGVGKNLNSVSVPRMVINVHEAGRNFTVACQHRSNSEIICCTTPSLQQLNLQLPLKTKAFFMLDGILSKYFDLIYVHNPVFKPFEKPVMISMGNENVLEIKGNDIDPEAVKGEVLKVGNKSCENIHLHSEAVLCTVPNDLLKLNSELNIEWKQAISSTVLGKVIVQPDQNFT
Chain of biotinylated c-Met-Fc (R&D Systems, #358-MT-100/CF, 5.1 biotin per c-Met molecule) (human) (P08581 25-932): as the sequence (P08581 25-932, stated change not applied) above
Chain of c-Met (endogenous, on human cell lines 184B5, HCT-116, DU-145 and NCI H441) (human) (P08581 25-1390): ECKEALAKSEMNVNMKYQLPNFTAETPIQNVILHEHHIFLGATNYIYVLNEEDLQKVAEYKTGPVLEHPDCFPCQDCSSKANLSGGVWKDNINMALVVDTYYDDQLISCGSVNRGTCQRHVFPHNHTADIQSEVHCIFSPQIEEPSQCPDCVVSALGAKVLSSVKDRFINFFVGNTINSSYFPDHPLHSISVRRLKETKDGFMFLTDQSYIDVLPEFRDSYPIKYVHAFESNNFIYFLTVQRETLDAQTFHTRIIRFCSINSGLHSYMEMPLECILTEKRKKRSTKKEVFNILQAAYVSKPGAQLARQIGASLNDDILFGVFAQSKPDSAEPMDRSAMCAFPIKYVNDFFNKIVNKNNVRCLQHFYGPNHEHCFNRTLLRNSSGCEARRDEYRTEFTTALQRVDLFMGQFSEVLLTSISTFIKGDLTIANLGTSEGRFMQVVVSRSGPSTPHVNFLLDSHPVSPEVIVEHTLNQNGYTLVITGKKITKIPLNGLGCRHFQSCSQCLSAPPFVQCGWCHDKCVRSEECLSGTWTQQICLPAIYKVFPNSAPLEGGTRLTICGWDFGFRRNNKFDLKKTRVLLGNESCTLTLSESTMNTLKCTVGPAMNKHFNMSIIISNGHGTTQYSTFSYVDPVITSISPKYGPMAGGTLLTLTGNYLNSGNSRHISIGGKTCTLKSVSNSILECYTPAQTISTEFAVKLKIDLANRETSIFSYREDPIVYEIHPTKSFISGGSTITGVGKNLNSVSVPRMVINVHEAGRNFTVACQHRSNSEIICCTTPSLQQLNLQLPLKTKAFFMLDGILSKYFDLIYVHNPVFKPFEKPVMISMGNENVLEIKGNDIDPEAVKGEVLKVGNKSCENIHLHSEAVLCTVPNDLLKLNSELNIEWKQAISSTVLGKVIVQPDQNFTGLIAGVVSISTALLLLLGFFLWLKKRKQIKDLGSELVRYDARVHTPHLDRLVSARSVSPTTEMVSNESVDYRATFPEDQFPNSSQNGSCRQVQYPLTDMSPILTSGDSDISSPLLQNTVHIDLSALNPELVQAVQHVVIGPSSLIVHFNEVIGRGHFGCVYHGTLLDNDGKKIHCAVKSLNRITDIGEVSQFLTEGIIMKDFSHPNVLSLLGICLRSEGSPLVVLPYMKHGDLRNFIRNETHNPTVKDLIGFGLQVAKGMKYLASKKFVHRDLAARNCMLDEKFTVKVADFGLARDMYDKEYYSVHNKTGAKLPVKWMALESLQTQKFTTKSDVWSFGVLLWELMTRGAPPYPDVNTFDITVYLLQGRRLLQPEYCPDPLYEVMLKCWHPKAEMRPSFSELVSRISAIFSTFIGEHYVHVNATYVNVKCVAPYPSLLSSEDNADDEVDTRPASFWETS

Substance: c-Met antibody 1A3.3.13 (#HB-11894, ATCC Hybridoma), IgG
IC50 [1]: 0.5 nM
scatter assay on DU-145 cells, mean object area, agonist (alone), 100 nM IgG; the smaller the number, the more scattering (mean object area) [2]: 305
scatter assay on DU-145 cells, mean object area, antagonist (w/30 pM HGF), 100 nM IgG; the smaller the number, the more scattering (mean object area) [2]: 254
Kd [3]: 1.4 nM
koff [3]: 0.000289 s⁻¹
kon [3]: 210000 M⁻¹ s⁻¹

Substance: HB-94 (#HB-94, ATCC Hybridoma) converted into a Fab fragment, Fab isotype control
scatter assay on DU-145 cells, mean object area, agonist (alone), 100 nM Fab; the smaller the number, the more scattering (mean object area) [2]: 592
scatter assay on DU-145 cells, mean object area, antagonist (w/30 pM HGF), 100 nM Fab; the smaller the number, the more scattering (mean object area) [2]: 478

Substance: recombinant human HGF (rhHGF, R&D Systems) (from UniProt P14210 32-728) (ligand)
scatter assay on DU-145 cells, mean object area, 30 pM HGF alone, IgG series; the smaller the number, the more scattering (mean object area) [2]: 324
scatter assay on DU-145 cells, mean object area, media alone with 30 pM HGF (no antibody or Fab), Fab series; the smaller the number, the more scattering (mean object area) [2]: 352

Substance: c-Met antibody 5D5.11.6 (#HB-11895, ATCC Hybridoma), Fab
scatter assay on DU-145 cells, mean object area, agonist (alone), 100 nM Fab; the smaller the number, the more scattering (mean object area) [2]: 632
scatter assay on DU-145 cells, mean object area, antagonist (w/30 pM HGF), 100 nM Fab; the smaller the number, the more scattering (mean object area) [2]: 592
IC50 [4]: 9.72 nM
Kd [5]: 1 nM
koff [5]: 0.000129 s⁻¹
kon [5]: 126000 M⁻¹ s⁻¹

Further lines, results first:

scatter assay on DU-145 cells, mean object area, agonist (alone), 100 nM, IgG column; the smaller the number, the more scattering (mean object area) [2]: 365
scatter assay on DU-145 cells, mean object area, antagonist (w/30 pM HGF), 100 nM, IgG column; the smaller the number, the more scattering (mean object area) [2]: 199
Substance: HB94 (#HB-94, ATCC Hybridoma), IgG columns of Tables 9 and 10 (antibody)

scatter assay on DU-145 cells, mean object area, agonist (alone), 100 nM IgG; the smaller the number, the more scattering (mean object area) [2]: 239
scatter assay on DU-145 cells, mean object area, antagonist (w/30 pM HGF), 100 nM IgG; the smaller the number, the more scattering (mean object area) [2]: 241
Kd [3]: 5.9 nM
koff [3]: 0.000406 s⁻¹
kon [3]: 68800 M⁻¹ s⁻¹
Substance: c-Met antibody 5D5.11.6 (#HB-11895, ATCC Hybridoma), IgG

scatter assay on DU-145 cells, mean object area, agonist (alone), 100 nM Fab; the smaller the number, the more scattering (mean object area) [2]: 597
scatter assay on DU-145 cells, mean object area, antagonist (w/30 pM HGF), 100 nM Fab; the smaller the number, the more scattering (mean object area) [2]: 400
IC50 [4]: 6.83 nM
Kd [5]: 6.3 nM
koff [5]: 0.00313 s⁻¹
kon [5]: 497000 M⁻¹ s⁻¹
Substance: c-Met antibody 1A3.3.13 (#HB-11894, ATCC Hybridoma), Fab
